{"source": "patent US20180230200A1", "about": "(CITY OF HOPE, published 2018)", "binders": {"B1": {"name": "18F10 (antibody, V domains shown)", "VH": "QVTLKESGPGILQPSQTLSLTCSFSGFSLSTYGIGIGWIRQPSGKGLEWLAHIWWNDNKNYNTALKSRLTISKDPSNNQVFLKIASVDTADTATYFCARTGYFDVWGAGTTVTVSS", "VL": "DVVLTQTPLSLPVSLGDQVSISCSSSQSLVHSNGNTYIHWYLQKPGQSPKLLIYTVSNRFSGVPDRFSGSGSGTDFTLKISRVEAEDLGLYFCSQSTHVPYTFGGGTKLEIK", "notes": "also called NAb 18F10"}}, "key": {"[1]": {"biological_target": "gH of HCMV strain TB40/E (human cytomegalovirus strain TB40/E)", "test": "cell-based or functional assay"}, "[2]": {"biological_target": "T1, gH/gL/UL128/UL130/UL131A pentamer complex expressed from MVA-PC in BHK-21 cells (human cytomegalovirus, UniProt P12824 24-743; P16832 31-278; P16837 28-171; P16772 1-214; F5HET4 19-129)", "T1 construct": "whole, on cells", "test": "FC, biotinylated NAb titrated on MVA-PC-infected BHK-21 (cell surface PC)"}, "[3]": {"biological_target": "T1, gH/gL/UL128/UL130/UL131A pentamer …", "test": "FC competition, MVA-PC BHK-21; unlabelled row Ab; competitor: biotinylated 13B5"}, "[4]": {"biological_target": "T1, gH/gL/UL128/UL130/UL131A pentamer …", "test": "FC competition, MVA-PC BHK-21; unlabelled row Ab; competitor: biotinylated 2-80; also: test concentration or dose not given here"}, "[5]": {"biological_target": "T1, gH/gL/UL128/UL130/UL131A pentamer …", "test": "FC competition, MVA-PC BHK-21; unlabelled row Ab; competitor: biotinylated 54E11"}}}
{"binder": "B1", "values": [{"measurement": "IC50, inhibition of TB40/E cell-to-cell spread in ARPE-19", "setting": "[1]", "result": 95, "unit": "µg/mL"}, {"measurement": "IC50, neutralization of TB40/E infection of ARPE-19", "setting": "[1]", "result": 763, "unit": "ng/mL"}, {"measurement": "IC50, neutralization of TB40/E infection of CTB", "setting": "[1]", "result": 8800, "unit": "ng/mL"}, {"measurement": "IC50, neutralization of TB40/E infection of HUVEC", "setting": "[1]", "result": 1490, "unit": "ng/mL"}, {"measurement": "IC50, neutralization of TB40/E infection of MRC-5", "setting": "[1]", "result": "> 25000", "unit": "ng/mL"}, {"measurement": "EC50", "setting": "[2]", "result": 6.5, "unit": "nM"}, {"measurement": "Binding Inhibition (%)", "setting": "[3]", "result": 0, "unit": "%"}, {"measurement": "Binding Inhibition (%)", "setting": "[4]", "result": 0, "unit": "%"}, {"measurement": "Binding Inhibition (%)", "setting": "[5]", "result": 0, "unit": "%"}]}
